What was measured:
[1] = target: SARS-CoV S2Pecto (SARS-CoV) (UniProt P59594); experiment: ELISA on coated antigen
[2] = target: recombinant receptor binding domain (RBD) of SARS-CoV-2 spike protein, residues 319-528, deglycosylated (SARS-CoV-2) (UniProt P0DTC2); experiment: crystal structure RBD/COV2-2196/COV2-2130
[3] = target: recombinant receptor binding domain (RBD) of SARS-CoV-2 spike protein, residues 319-528, deglycosylated (SARS-CoV-2) (UniProt P0DTC2); experiment: crystal structure RBD/COV2-2196

Sequence of COV2-2196 Fab (recombinant, wt sequence) (VH): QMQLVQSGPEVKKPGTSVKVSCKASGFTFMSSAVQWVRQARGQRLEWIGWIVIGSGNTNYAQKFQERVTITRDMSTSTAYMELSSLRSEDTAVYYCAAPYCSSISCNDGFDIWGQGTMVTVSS
Sequence of COV2-2196 Fab (recombinant, wt sequence) (VL): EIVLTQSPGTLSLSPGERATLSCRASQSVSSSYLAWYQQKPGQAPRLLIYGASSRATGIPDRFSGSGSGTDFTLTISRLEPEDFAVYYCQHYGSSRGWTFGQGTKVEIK

Substance | EC50 [1] | further results
COV2-2094 (antibody) | 11.7 ng/mL | –
COV2-2196 Fab (recombinant, first two amino acids of the variable region mutated from QM to EV) | – | buried surface area of the interface [2]: 650 Å^2
COV2-2196 Fab (recombinant, wt sequence) | – | buried surface area of the interface [3]: 650 Å^2
rCR3022 (recombinant form of the cross-reactive SARS-CoV SRBD mAb CR3022) (antibody) | 5.2 ng/mL | –

Source: patent US20210300999A1
